These results are taken from patent US20230095558A1 (SPARX BIOTECH JIANGSU, published 2023).

No end group written: not given here.

The chains are these.
B1: K10-20-peptide (targeting TIM3) (peptide)
peptide: SPFYYSGHQWVPHPRQAASY
notes: Synthetic 20-mer from phage display screening
B2: K3-20-peptide (targeting TIM3) (peptide)
peptide: SQEVFAWTFSPRWTTAPKAL
notes: as for B1
B3: K5-20-peptide (targeting TIM3) (peptide)
peptide: WQQNNPHLWDVFLGVPRTTE
notes: as for B1
B4: P20-12-peptide (targeting TIM3) (peptide)
peptide: LTPHKHHKHLHA
notes: Synthetic 12-mer from phage display screening
B5: P29-12-peptide (targeting TIM3) (peptide)
peptide: ADFRVMADMSMY
notes: as for B4
B6: P1307-12-peptide (targeting TIM3) (peptide)
peptide: SHDTRSPFTWGR
notes: as for B4
B7: P1303-12-peptide (targeting TIM3) (peptide)
peptide: ALWPSSSMSSTI
notes: as for B4
B8: K2-20-peptide (targeting TIM3) (peptide)
peptide: FTYAHPVSHRWESSVHVDQW
notes: as for B1
B9: P24-12-peptide (targeting TIM3) (peptide)
peptide: GSWNTFRAQPTI
notes: as for B4

This experiment has as its target T1, TIM3 protein (cat #CHI-MF-210T3-0050, Chimerigen).
T1 construct: Bought recombinant protein used in SPR; also called TLM3 protein
The experiment in a line: SPR (OpenSPR), TIM3 protein immobilised on chip, peptide in flow. The protocol: SPR assay: Affinity identification between the TIM3-targeting binding peptides and TIM3 was performed by immobilizing TIM3 protein (50 μg/mL) on the surface of a nanogold sensor chip upon activation of EDC/NHS. […] The competitive binding ability of the TIM3-targeting binding peptides to the ligand was identified by immobilizing the Galectin-9 protein (25 μg/mL) on a sensor chip at a detection concentration of 100 μg/mL for the TIM3-targeting binding peptides, and at a concentration of the mixed sample of 100 μg/mL TIM3-targeting binding peptides and 10 μg/mL TIM3 protein. The detection sample was loaded at a flow rate of 20 μL/min for about 7 min according to the instrument instructions. The KD, ka and kd values were calculated and analyzed by Trace Drawer Evaluation (version 2.0) software.
In the case of B1, binding was put at a Kd of 26.1 µM and the koff was determined as 0.023 s⁻¹.

HDAFPRPHLFRN (not fully specified) [P1301-12-peptide (targeting TIM3)] returned a Kd of 80.1 µM and a koff of 0.00428 s⁻¹.

In turn, B2 showed a Kd of 20.1 µM and a koff of 0.0132 s⁻¹.

Take B3: binding was put at a Kd of 18 µM and the koff stood at 0.016 s⁻¹.

On to B4, for which binding was characterised by a dissociation constant (Kd) of 24.3 µM and the koff worked out at 0.00625 s⁻¹.

With B5, the Kd is 200 µM and the koff worked out at 0.00747 s⁻¹.

Consider B6, for which the Kd was determined as 117 µM and the off-rate constant (koff) worked out at 0.00789 s⁻¹.

For the molecule B7, the affinity, expressed as Kd, was 26.3 µM; the koff came out at 0.00308 s⁻¹; the kon was found to be 117 M⁻¹ s⁻¹.

In the case of B8, the Kd was found to be 227 µM and the koff amounted to 0.0103 s⁻¹.

Molecule B9 yielded a Kd of 0.095 µM and a koff of 1.69e-05 s⁻¹.
